The data set in a line: label from the status in PepcDB records.

Our source for the protein production values is a protein production outcome set (Wang et al. 2014).

For the sequence “MGPSILKMLTHAKSHKEALMAFSRREFLKSAAAASAASAVGMSVPSQLLAQAQEGEKGWRWDKSVCRFCGTGCGIMVATKNDQIVAVKGDPAAPVNRGLNCIKGYFNAKIMYGADRLTDPLLRVNEKGEFDKQGKFKPVSWKKAFDVMEAQFKRAYNELGPTGIGVFGSGQYTIQEGYMAAKLIKGGFRSNNLDPNARHCMASAVAAFMETFGIDEPAGCYDDIELTDTIITWGANMAEMHPILWARVTDKKLSNPDKVKVINLSTYTNRTSDLADIEIIFTPQTDLAIWNYIAREIVYNHPESIDMEFVKNHCIFTTGFTDIGYGMRTDIKHAKYDPKELDIAAKERSKVLSEAEGVTLRYLGMKAGDVMEMKHNATAGNHWEITFEDFKKALEPYTLDFVAKLAKGNSEESLESFKEKLQKLANLYIEKERKVVSFWTMGMNQHTRGTWVNEQSYMVHFLLGKQAKPGSGAFSLTGQPSACGTAREVGTFSHRLPADMVVANPKHRAVSEKIWKLPEGTLNPKMGAHYMNIMRDLEDGKIKFAWIQVNNPWQNTANANHWIKAAREMDNFIVCSDAYPGISAKVADLILPTAMIYEKWGAYGNAERRTQHWRQQVVPVGNAMPDVWQMAEFSKRFKLKEVWGAKKIDDKLTLPDVLEKAKAMGYSPEDTLFEVLFANSEAKSFKAKDPIGEGFENTEVFGDRRNVAGSDGEVFKGYGFFIHKYLWEEYRRFGNGHGHDLADFDTYHKVRGLKWPVVDGKETQWRFNAKYDPYARKAGSGEFAFYGDAMKELPRGDLLSPKTEEKFKLTNKAKIFFRPYMDPPEMPSSEYPLWLCTGRVLEHWHSGTMTMRVPELYRAVPEALCYMHPEDAKKLGVKQNEAVWVESRRGKVKARVDTRGRNRTPLGLVYVPWFDEKVYINKVCLDATCPISKQTDFKKCAVKVYKA”, the protein production entry is “failed”.
“MGQFSLDSISSEISERKSFIGRINDEKLSSFDDVVKQRETKSWRAWRRSKRRRFTRKRHGLLASATAEGSESTVHARLNEEDLTAEIVFEECHVSGGELNDVVRLENEMLDRFYGAGFWRSPSQKDTSSGSL”: the protein production entry is “failed”.
For “MGQLPPRARAFFAAQRPLRVLMPGCGSAADLPPLLAMGHDVLAVDFSEAAIELAARQWPEAAGRLLLADFFQLQMPAFDCLFERAFLCALPVGMRSQYAERVAALIAPGGALAGVFFVADTERGPPFGMQAEALRELLSPWFELEEDLALDESVAVFRNRERWMVWRRRGLEHHHHHH”, the protein production result is “failed”.
In the case of “MGRDASSYFHLVFFLALTLLAGCSTTGSAPETREAGAGPEELMAAVRANEDRAVLELLSMGVRPDAQARAEQTPLMVAATNGNRRIVRLLLAAGAEVNARSADGNTAVIQAAENGHLAVVRALLAAGANVNVSQGGESLLMKVVASGDLLTAEMLLAAGADVHYRRADGTTALDLARASNNQDLEMLLVQAGAAR”, the protein production result is recorded as “failed”.
Then “MGREIFNRRLPDNYNDFSHSMDNAANGHYFLRVASSNYKRPDGKNVRTVRDVIAEVDQNGVVVDEWRLFDILDPYRDVIMKTLDQGAVCLNIDASQSGHTLSEEDLAALDSSDKFGDIVGSGAGRNWAHVNSVDYDSEDDSIIISSRHQSAIIKIGRDKKVKWILGTPAGWKAPFNAAILTPVDSKGQKIACQDSGCEGDFDWTWTQHTAFKIDSKSKGDILYLSAFDNGDGRGLEQPAMQSMKYSRSVIYKIDQKNKTVQQIWQYGKERGNEWFSPVTSITEYQTDKNSVFVYSATAGGAFDLSVGAFTSLPNPYLEEFKWGEKEPAVEMQIHGARGYQAMPFSLTKALTELEHHHHHH”, with “failed”; and “MGRIIGIDLGTTTSEIAYVKDGKPCIIRNIEEGDEHAIPSVVSIEGDEIKVGKKAKNQILLKPELTVAEVKRVMGTENIIQIQGKEYRPEEISALILKKLKEVAEYFLGEEVEEAVITVPANFNDIQRKATKNAGEIAGFKVERIINEPTAAAMAYGVDNLDKNGNILVYDFGGGTFDVTILEMFNGVLDVKVSRGNNYLGGKDIDNKLIDHVVNEFNKSTGVKLDTSDSRILARLKEGVEEAKKTLSTSKMAEIVLPYISADKDNNPINLEMVLTREEFEFNVKEIIDSTEDIVNEALEDANITDNEIDTVLLVGGSSRIPYVRNMLEKRFKGKIARGVNPDEAVALGASVQAAIKNDIPVGDSGTIIVTDTCNYTLGVALKGGIFDPIIDRDSKLPANVTKRYCTVMDNQTEVLVSVYEGESRYVSDNTLIDEFILSGIPKADTGKEKIDITFTYDLNGILNVSAEILSTGDEISKIMSTKGLSKEEIQDLKEVVSSNENNNELVPWKSANLFKLVEPNFRLAERKIPMLPSADREKLQEIMSDMKDAIVDNDKMALMKLDEELTDFLFDFVN”, with “failed”.
